Molecular target: horse liver alcohol dehydrogenase (horse)
Assay: cryo-EM structure

stoichiometry N: 2
Substance: horse liver alcohol dehydrogenase (enzyme)

— paper doi:10.1101/489898
